Reference: IntAct's records for PubMed 24976139

B1: Tyrosine-protein phosphatase non-receptor type 1 (Homo sapiens), P18031 (parent)
chain: MEMEKEFEQIDKSGSWAAIYQDIRHEASDFPCRVAKLPKNKNRNRYRDVSPFDHSRIKLHQEDNDYINASLIKMEEAQRSYILTQGPLPNTCGHFWEMVWEQKSRGVVMLNRVMEKGSLKCAQYWPQKEEKEMIFEDTNLKLTLISEDIKSYYTVRQLELENLTTQETREILHFHYTTWPDFGVPESPASFLNFLFKVRESGSLSPEHGPVVVHCSAGIGRSGTFCLADTCLLLMDKRKDPSSVDIKKVLLEMRKFRMGLIQTADQLRFSYLAVIEGAKFIMGDSSVQDQWKELSHEDLEPPPEHIPPPPRPPKRILEPHNGKCREFFPNHQWVKEETQEDKDCPIKEEKGSPLNAAPYGIESMSQDTEVRSRVVGGSLRGAQAASPAKGEPSLPEKDEDHALSYWKPFLVNMCVATVLTAGAYLCYRFLFNSNT
partner: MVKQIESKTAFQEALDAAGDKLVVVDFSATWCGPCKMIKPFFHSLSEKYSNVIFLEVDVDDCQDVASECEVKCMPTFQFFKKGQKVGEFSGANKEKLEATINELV

Variants of: B1
Details: with thio_human TXN

Variant | effect of a mutation on the interaction
MEMEKEFEQIDKSGSWAAIYQDIRHEASDFPCRVAKLPKNKNRNRYRDVSPFDHSRIKLHQEDNDYINASLIKMEEAQRSYILTQGPLPNTCGHFWEMVWEQKSRGVVMLNRVMEKGSLKCAQYWPQKEEKEMIFEDTNLKLTLISEDIKSYYTVRQLELENLTTQETREILHFHYTTWPDFGVPESPASFLNFLFKVRESGSLSPEHGPVVVHAAAGIGRSGTFCLADTCLLLMDKRKDPSSVDIKKVLLEMRKFRMGLIQTADQLRFSYLAVIEGAKFIMGDSSVQDQWKELSHEDLEPPPEHIPPPPRPPKRILEPHNGKCREFFPNHQWVKEETQEDKDCPIKEEKGSPLNAAPYGIESMSQDTEVRSRVVGGSLRGAQAASPAKGEPSLPEKDEDHALSYWKPFLVNMCVATVLTAGAYLCYRFLFNSNT [C215A;S216A] | disrupting interaction
